Source: the Human Domainome abundance scans (Beltran et al. 2025)
± gives the uncertainty stated by the source.

B1: Protein maelstrom homolog, residues 3 to 71; numbered along this chain, Q96JY0 (parent)
chain: NRKASRNAYYFFVQEKIPELRRRGLPVARVADAIPYCSSDWALLREEEKEKYAEMAREWRAAQGKDPGP

Variants of: B1
Experiment: abundance fitness (aPCA) (normalised: wild type 0, dead -1); higher = more abundant; growth selection in yeast, the domain comes from the species named
Conditions: Homo sapiens
In the case of NRKASRNAYYFFVQEKIDELRRRGLPVARVADAIPYCSSDWALLREEEKEKYAEMAREWRAAQGKDPGP [P18D], the abundance fitness is reported as -0.313 ± 0.099. For NRKASRNAYYFFVQEKIPELRRRGLPVARVADAIPYCSSDWALLREEEKEKYAEMAREWRAAVGKDPGP [Q63V], the abundance fitness was -0.089 ± 0.059. With NRKASRNAYYFFVQEKIPELRRRGLPVARVRDAIPYCSSDWALLREEEKEKYAEMAREWRAAQGKDPGP [A31R] the abundance fitness was -0.06 ± 0.058. Variant NRKDSRNAYYFFVQEKIPELRRRGLPVARVADAIPYCSSDWALLREEEKEKYAEMAREWRAAQGKDPGP [A4D] has an abundance fitness of -0.462 ± 0.23. Work on NRKASRNAYYFFVQEKIPELRRRGLPVARVAKAIPYCSSDWALLREEEKEKYAEMAREWRAAQGKDPGP [D32K] yielded an abundance fitness of -0.869 ± 0.24. For NRKASRNAYYFFVQEKIPELRRRGLPVARVADAIPYCSSDWALLREEEKEKYAEMAREWRAAQGKDPGS [P69S], the abundance fitness was 0.126 ± 0.083. In the case of NRKASRNAYYFFVQEKIPELRRRGLPVARVADAIFYCSSDWALLREEEKEKYAEMAREWRAAQGKDPGP [P35F], the abundance fitness is reported as -0.862 ± 0.48. With NRKASRNAYYFFVQEKIPELRRRGLPVARVADAIPYCSGDWALLREEEKEKYAEMAREWRAAQGKDPGP [S39G] the abundance fitness was 0.13 ± 0.054. In the case of NRKASRNAYYFFVQEKIPELRRRGLPVARVADAIPYCSSDWALLCEEEKEKYAEMAREWRAAQGKDPGP [R45C], the abundance fitness is reported as 0.016 ± 0.11. In the case of NRKASRNAYYFFVQEKLPELRRRGLPVARVADAIPYCSSDWALLREEEKEKYAEMAREWRAAQGKDPGP [I17L], the abundance fitness is reported as -0.18 ± 0.075. For NRKASRNAYYFFVQEKCPELRRRGLPVARVADAIPYCSSDWALLREEEKEKYAEMAREWRAAQGKDPGP [I17C], the abundance fitness was -0.771 ± 0.23. NRKASRNAYYFFVQEKIPELRRRGLPVARVADAIPYCSSDWALLREEEKEKYAEMARSWRAAQGKDPGP [E58S] showed an abundance fitness of -0.24 ± 0.097. NRKASRNAYYFFVQEKIPELRRRGLPNARVADAIPYCSSDWALLREEEKEKYAEMAREWRAAQGKDPGP [V27N] showed an abundance fitness of -0.02 ± 0.21. For NRKASRNAYYFFVQEKIPELRRRGLPVARVADAIPYCSSDWALLREEEKEKYAGMAREWRAAQGKDPGP [E54G], the abundance fitness was -0.049 ± 0.044. With NRKASRNAYYFFVQEKIPELRRRGLPVARVADAIPYCSSDWALIREEEKEKYAEMAREWRAAQGKDPGP [L44I] the abundance fitness was -0.482 ± 0.21. Variant NAKASRNAYYFFVQEKIPELRRRGLPVARVADAIPYCSSDWALLREEEKEKYAEMAREWRAAQGKDPGP [R2A] has an abundance fitness of -0.407 ± 0.085. With NRKASRNAYYFFVQEKIPELRRRGLPVARVADAIPYCSSDHALLREEEKEKYAEMAREWRAAQGKDPGP [W41H] the abundance fitness was -1.1 ± 0.23. For NRKASRNAYYFFVQEKIPELRRRGLPVARVADAIPYCSSDWALLREEEKEKYAEMAREWRAAQGKDPLP [G68L], the abundance fitness was -0.309 ± 0.06. NRKASRNAYYFFVQEKIPELRRRGLPVARVADAIPYCSSDWALLREEEKEKYAEMAREWRAANGKDPGP [Q63N] showed an abundance fitness of 0.023 ± 0.083. With NRKASRNAYNFFVQEKIPELRRRGLPVARVADAIPYCSSDWALLREEEKEKYAEMAREWRAAQGKDPGP [Y10N] the abundance fitness was 0.15 ± 0.29. In the case of NRKASRNAYYFFVQEKIPELRRRGLPVARVADAIPYCSSDWALLRGEEKEKYAEMAREWRAAQGKDPGP [E46G], the abundance fitness is reported as -0.031 ± 0.055. Work on NRKASRNAYYFFVQEKIPELRRRGLPVARKADAIPYCSSDWALLREEEKEKYAEMAREWRAAQGKDPGP [V30K] yielded an abundance fitness of -0.514 ± 0.087. NRKASRNAYYFFVQEKIPELRRRGLPVARVADAIPYCSSDWALLIEEEKEKYAEMAREWRAAQGKDPGP [R45I] showed an abundance fitness of -0.431 ± 0.23. For NRKAARNAYYFFVQEKIPELRRRGLPVARVADAIPYCSSDWALLREEEKEKYAEMAREWRAAQGKDPGP [S5A], the abundance fitness was 0.013 ± 0.12. NRKASRNAYYFFVQEKIPELRRRGLPVARVADAIPYCSSDWALLREEEKEKYAYMAREWRAAQGKDPGP [E54Y] gave an abundance fitness of -0.293 ± 0.065. For NRKASRNAYYFCVQEKIPELRRRGLPVARVADAIPYCSSDWALLREEEKEKYAEMAREWRAAQGKDPGP [F12C], the abundance fitness was -0.621 ± 0.12. Work on NRKASRNAYYFFLQEKIPELRRRGLPVARVADAIPYCSSDWALLREEEKEKYAEMAREWRAAQGKDPGP [V13L] yielded an abundance fitness of -0.32 ± 0.25. Work on NRKASRNAYYFFVTEKIPELRRRGLPVARVADAIPYCSSDWALLREEEKEKYAEMAREWRAAQGKDPGP [Q14T] yielded an abundance fitness of -0.186 ± 0.063. Variant NRKASRNAYYFFVQEKIPEWRRRGLPVARVADAIPYCSSDWALLREEEKEKYAEMAREWRAAQGKDPGP [L20W] has an abundance fitness of -0.673 ± 0.12. For NRKASRNAYYFFVQEKIPELRRRGLPVARVADAIPYCSSDWALLREEEKEKYAEMAREWRAAQGKDPAP [G68A], the abundance fitness was -0.139 ± 0.1. NRKASRNAYYFFVQEKIPELRRRGLPVARVADAIPYCSSDWALLREEEKEKYAEMAREWRAAAGKDPGP [Q63A] showed an abundance fitness of -0.018 ± 0.066. For NRKASRNAYYFFVQEKIYELRRRGLPVARVADAIPYCSSDWALLREEEKEKYAEMAREWRAAQGKDPGP [P18Y], the abundance fitness was -0.673 ± 0.25. With NRKASRNAYYFFVQEKIPELRRRGLPVARVADAIPYCSSDWALLREEEKEKYAEMAREWRAAQGKLPGP [D66L] the abundance fitness was 0.047 ± 0.049. NSKASRNAYYFFVQEKIPELRRRGLPVARVADAIPYCSSDWALLREEEKEKYAEMAREWRAAQGKDPGP [R2S] showed an abundance fitness of 0.091 ± 0.032. Work on NRKASRNAYYFFVQEKIPELRRRGLPVARVADAIPYCMSDWALLREEEKEKYAEMAREWRAAQGKDPGP [S38M] yielded an abundance fitness of -0.154 ± 0.2. For NRKASRNAYYFFVQEKIPELRRRGLPVARYADAIPYCSSDWALLREEEKEKYAEMAREWRAAQGKDPGP [V30Y], the abundance fitness was -0.09 ± 0.13. In the case of NRKASRNAYYFFVQEKIPELRMRGLPVARVADAIPYCSSDWALLREEEKEKYAEMAREWRAAQGKDPGP [R22M], the abundance fitness is reported as -0.261 ± 0.085. Work on NRKASRNAYYFFVQEKIPELRRRGLPVARVADAIPYSSSDWALLREEEKEKYAEMAREWRAAQGKDPGP [C37S] yielded an abundance fitness of -0.561 ± 0.07. With NRKASRNAYYFFVQEKIPELRRRGLPVARVADAIPYCSSDWALLREEEKEKYATMAREWRAAQGKDPGP [E54T] the abundance fitness was 0.212 ± 0.073.
